Reference: the supplement of paper PMC9170038

System: MS2 coat protein
Experiment: apparent KD of MS2 coat protein; designed switch direction (-1 OFF switch, 1 ON switch): -1; higher = weaker reporter binding
How it was run: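 Designed RNA switches with common flanks were transcribed on Illumina chips by stalled E. coli RNA polymerase and titrated with SNAP-549-labelled MS2 coat protein, from 0.7 or 1.5 nM doubling to 3 µM, in Tris-HCl pH 7.5 buffer with KCl, MgCl2, BSA, DTT, tRNA and Tween-20. Steps lasted 0.8–1.5 h (lowest) to 10–20 min (highest). Titrations ran without input, with 200 uM small-molecule ligand, or with an oligonucleotide input. Normalised cluster fluorescence was curve-fitted, and apparent KD is the per-design median over clusters.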

[1] = input ligand: microRNA oligo, concentration not stated
[2] = Eterna round: R95, input ligand: FMN 200 uM
[3] = Eterna round: R95, input ligand: microRNA oligo, concentration not stated
[4] = Eterna round: R95, input ligand: none

Sequence | apparent KD of MS2 coat protein (input ligand: FMN 200 uM) [nM] | apparent KD of MS2 coat protein [1] [nM] | apparent KD of MS2 coat protein (input ligand: none) [nM] | apparent KD of MS2 coat protein [2] [nM] | apparent KD of MS2 coat protein [3] [nM] | apparent KD of MS2 coat protein [4] [nM]
UGGACAUGAGGAUCACCCAUGUAAUACACACCUCAGCCACGAGAGGAUAUGCCCGGAGGACCGGCGCAGAAGGCUCCCAAGAGA [Eternabot solution 10] (Eterna round: R96, puzzle: Exclusion NG 3) | 83.8 | 29.5 | 48.1 |  |  | 
UGGCUGCUCAGGGAGUGUGACAUGAGGAUCACCCAUGUGGUAGUAAGGAACAAGCUUUUUGCACGUACUUAUGGGUC [JR_SV3TOV1_Sub010] (puzzle: Sensor v3, turn-off variant 1) |  |  |  | 268 | 204 | 375
UGGCUGCUCAGGGAGUGUGACAUGAGGAUCACCCAUGUGGUGGUAGGGAACAAGCUUUUUGCACGUACUUAUGAGUC [JR_SV3TOV1_Sub009] (puzzle: Sensor v3, turn-off variant 1) |  |  |  | 840 | 107 | 388
UGGGUUCCAAGUGAGUCAGACAUGAGGAUCACCCAUGUAUAGCAAGCCUUAGCCGUUCGAGCAAAUGGUCUCGUCAG [Eternabot (Original) Solution 36] (Eterna round: R97, puzzle: Sensor, turn-off variant 1) | 384 |  | 1040 |  |  | 
UGGUAACAUGAGGAUCACCCAUGUCAGGAUAUCAGUAAGAAGAGAGGAGAGUAGAAGAUGAGAAGGGACUAUAU [Excluse me! 9 - Jieux - Exclusion 1] (puzzle: Exclusion 1) |  |  |  | 26.4 | 29.9 | 37.4
UGGUCACAUGAGGAUCACCCAUGUCAGGAUAUCGUCACUGGAGCCUCGGCUCCAGUGACGAGAAGGGACAUAAU [E1/6-A2] (Eterna round: R97, puzzle: Exclusion 1) | 267 |  | 254 |  |  | 
UGUAGAGUGGUAGGAUAUCCGGCUGUUUCAGUCGGAGAAGGACCACAGUCACUGGGUCCUUAUAUGGGUGACCAUGUAUCUACU [pwkr exNG1 F6.7] (Eterna round: R96, puzzle: Exclusion NG 1) | 558 | 305 | 395 |  |  | 
UGUCAGAUGGUAGGAUAUCCUUAUCGCGUGUCCCUUUCCUAACAUGAGGAUCACCCAUGUCGGUGGGAGAAGGGCCGUAUGGUG [salish99_ExNG02_R04_038] (Eterna round: R96, puzzle: Exclusion NG 2) | 11.5 | 11.2 | 13.4 |  |  | 
UGUGCGUAUGUGAGGAUAUGCUGGUCCUUGGCUCGGCAGAAGGCACAUGAGGAUCACCCAUGUGGUGUCGUACG [salish99_Bmod_ex4_064] (puzzle: Brourd's mod of Exclusion 4) |  |  |  |  | 52.1 | 
UGUGGGUCAGGAUAUUCUAUUUAUUACAUGAGGAUCACCCAUGUGAAUGUACAAGGGUGUGAAGAAGGGACUUGUG [LRO-Excl5-02-mod A17d by Omei] (Eterna round: R97, puzzle: Exclusion 5) | 793 |  | 2360 |  |  | 
UGUUGUUACGCAGGAUAUGAGGAUCACCCAUAUAAGGAUAUCGAAAGAGAAGUUCUGAGGAUCACCCAGAAGGGCGGGUUAACA [pwkr exNG2 2xF5 2xFMN.31] (Eterna round: R96, puzzle: Exclusion NG 2) | 193 | 59 | 71.1 |  |  | 
UGUUGUUACGUAGGAUAUCCACCAACAGGUGGAAGGAUAUGUACGCAGAAGGUUCGCCAACAGGCGGAGAAGGACGUGUUAACA [pwkr exNG2 2xF7 2xFMN.28] (Eterna round: R96, puzzle: Exclusion NG 2) | 675 | 1110 | 385 |  |  | 
UGUUUAUAUGAAGGAUAUACUUAACAUGAGGAUCACCCAUGUGGUGUUGUGAGUGAGUGAGUUUAGUAGAAGGUCAAGUAUUUU [JMF's solution 54] (Eterna round: R96, puzzle: Exclusion NG 2) | 681 | 373 | 395 |  |  | 
UUAAACGCAGGAUAUACAUUUUUUUUAUUAUCCUCAUAAAUACAUGAGGAUCACCCAUGUAGAAGGGCGAAAUU [Mat - Exclusion 2 - Mod of Hog - D87] (puzzle: Exclusion 2) |  |  |  |  | 144 | 
UUAAAUAAUGUAGGAUAUGCAAGGCGAACCUAAGCAGAAGGACAUGAGGAUCACCCAUGUAAUGCGGUCUGCGUACAGAUCGCA [JL ENG1 1.01] (Eterna round: R96, puzzle: Exclusion NG 1) | 59.4 | 23.2 | 24.2 |  |  | 
UUAAAUAGUGUGAGGAUAUGCUGGUCCUUGGAUCAGCAGAAGGCACAUGAGGAUCACCCAUGUAGUUAAUUUUA [Mat - Exclusion 4 - JL Mod - D22] (puzzle: Brourd's mod of Exclusion 4) |  |  |  |  | 37.4 | 

Sequence | apparent KD of MS2 coat protein (input ligand: FMN 200 uM) [nM] | apparent KD of MS2 coat protein [1] [nM] | apparent KD of MS2 coat protein (input ligand: none) [nM] | apparent KD of MS2 coat protein [2] [nM] | apparent KD of MS2 coat protein [3] [nM] | apparent KD of MS2 coat protein [4] [nM]
UUAAAUCAUGUAGGAUAUGCGUGGAGAAGCUAUGCAGAAGGACAUGAGGAUCACCCAUGUGCUUCCGUCUGCGUACAGAUGGUA [Mat - Exclusion NG 1 - Mod of JL - D7] (Eterna round: R96, puzzle: Exclusion NG 1) | 84.5 | 17.1 | 19.5 |  |  | 
UUAAAUCAUGUAGGAUAUGCGUGGCGAAGCUAUGCAGAAGGACAUGAGGAUCACCCAUGUGCUUCCGUCUGCGUACAGAUGGAA [JL Eng1 1.08 mod 3] (Eterna round: R96, puzzle: Exclusion NG 1) | 81.4 | 80.6 | 109 |  |  | 
UUAAAUCAUGUAGGAUAUGCGUGGCGAAGCUAUGCAGAAGGACAUGAGGAUCACCCAUGUUCCUGCGUCCGCGUACGGAUGCAA [JL Eng1 1.21 mod] (Eterna round: R96, puzzle: Exclusion NG 1) | 167 | 16.3 | 18.1 |  |  | 
UUAAUACAUGUAGGAUAUGCGUGGCGAAGCUAUGCAGAAGGACAUGAGGAUCACCCAUGUCUCUGCGUCCGCGUACGGAUGCAA [JL Eng1 1.21 mod 5] (Eterna round: R96, puzzle: Exclusion NG 1) | 13.9 | 11.6 | 15.8 |  |  | 
UUAAUGUGAGGAUAUCAAGUGUGAUAGAGUAAUGGUAAAUAUGAGAAGGCACAUGAGGAUCACCCAUGUUCUUC [Mat - Exclusion 4 - Mod of JL - D59] (puzzle: Exclusion 4) |  |  |  |  | 14 | 
UUAAUGUGAGGAUAUCAGGUGUGCUAGCGUACUGGUACAUCUGAGAAGGCACAUGAGGAUCACCCAUGUUCCUU [JL-ex4-3.27 Brourd mod] (Eterna round: R96, puzzle: Exclusion 4) | 59.4 | 15.9 | 20.6 |  |  | 
UUAAUGUGAGGAUAUCAGGUGUGCUAGCGUACUGGUACAUCUGAGAAGGCACAUGAGGAUCACCCAUGUUCCUU [JL-ex4-3.27 Brourd mod] (puzzle: Exclusion 4) |  |  |  |  | 16.2 | 
UUAAUUAAUUAAGGCUGAAGAUCACAUGAGGAUCACCCAUGUAAGGAUAUCAGCUCGAUUAGAGCUGAGAAGGUACAUGCAGCC [ExNG3/18-B1] (Eterna round: R96, puzzle: Exclusion NG 3) | 53.9 | 377 | 319 |  |  | 
UUAAUUAAUUAAUUAUAAGAUCAACAUGAGGAUCACCCAUGUGAGGAUAUCAGCUCGUUUAGAGCUGAGAAGGCACAAAUAAUU [ExNG3/16-B2] (Eterna round: R96, puzzle: Exclusion NG 3) | 208 | 45.7 | 49.8 |  |  | 
UUAAUUAGCAGGCAAGAUCAUUACAUGAGGAUCACCCAUGUCGAGGAUAUCAGCUCGAUUAGAGCUGAGAAGGCGACAGCCUGC [ExNG3/13-A1] (Eterna round: R96, puzzle: Exclusion NG 3) | 1540 | 443 | 382 |  |  | 
UUACAGCAAGGAUAUACAUGAGGAUCACCCAUGUAUGCAUGUUCGAGAGAGGCCUACGGUAGAAGGUGCAUGUU [EX3 C.11] (Eterna round: R97, puzzle: Exclusion 3) | 25.2 |  | 39.8 |  |  | 
UUACUCGCAGGAUAUACGGGACAUACACAUCAAACUACACGACAUGAGGAUCACCCAUGUAGAAGGGCGUUACA [Blue and Green] (Eterna round: R97, puzzle: Exclusion 2) | 73.5 |  | 51.2 |  |  | 
UUACUGCAAGGAUAUACAUGAGGAUCACCCAUGUUAAUGACACGGUGCAGCUUCGACAGUAGAAGGUGCGUGGG [Eternabot (L1) Solution 71] (Eterna round: R97, puzzle: Exclusion 3) | 43.2 |  | 34.7 |  |  | 
UUAGAAAGGUUAGGAUAUUAAUUAUUGUAUAGUAUGAUCUACAUGAGGAUCACCCAUGUUAAAUAUAAGAAGGAACGUUAGAUU [JR_ExcNG2_Sub093] (Eterna round: R96, puzzle: Exclusion NG 2) |  | 39.9 |  |  |  | 
UUAGAAAUGGUAGGAUAUUAGUAGUGUUUUACUCUGAUCCACAUGAGGAUCACCCAUGUGAGUAGUGAGAAGGAUCAUUUUAUG [base off of JR design] (Eterna round: R96, puzzle: Exclusion NG 2) | 21.1 | 17.8 | 19.3 |  |  | 
UUAUAAAGAGUGAGGAUAUGCUGGUCCUUGGAUCAGCAGAAGGCACAUGAGGAUCACCCAUGUAAAAUAAUAUU [Mat - Exclusion 4 - JL Mod - D40] (puzzle: Brourd's mod of Exclusion 4) |  |  |  |  | 25.4 | 
